Results published in article PMC10558373, “[^68Ga]Ga-NODAGA-E[(cRGDyK)]2 angiogenesis PET following myocardial infarction in an experimental rat model predicts cardiac functional parameters and development of heart failure” (Journal of Nuclear Cardiology, 2023).
[ ]: non-standard residue; d: D form.

T1: integrin αvβ3 (UniProt P06756 31-1048; P05106 27-788)
T1 chain 1: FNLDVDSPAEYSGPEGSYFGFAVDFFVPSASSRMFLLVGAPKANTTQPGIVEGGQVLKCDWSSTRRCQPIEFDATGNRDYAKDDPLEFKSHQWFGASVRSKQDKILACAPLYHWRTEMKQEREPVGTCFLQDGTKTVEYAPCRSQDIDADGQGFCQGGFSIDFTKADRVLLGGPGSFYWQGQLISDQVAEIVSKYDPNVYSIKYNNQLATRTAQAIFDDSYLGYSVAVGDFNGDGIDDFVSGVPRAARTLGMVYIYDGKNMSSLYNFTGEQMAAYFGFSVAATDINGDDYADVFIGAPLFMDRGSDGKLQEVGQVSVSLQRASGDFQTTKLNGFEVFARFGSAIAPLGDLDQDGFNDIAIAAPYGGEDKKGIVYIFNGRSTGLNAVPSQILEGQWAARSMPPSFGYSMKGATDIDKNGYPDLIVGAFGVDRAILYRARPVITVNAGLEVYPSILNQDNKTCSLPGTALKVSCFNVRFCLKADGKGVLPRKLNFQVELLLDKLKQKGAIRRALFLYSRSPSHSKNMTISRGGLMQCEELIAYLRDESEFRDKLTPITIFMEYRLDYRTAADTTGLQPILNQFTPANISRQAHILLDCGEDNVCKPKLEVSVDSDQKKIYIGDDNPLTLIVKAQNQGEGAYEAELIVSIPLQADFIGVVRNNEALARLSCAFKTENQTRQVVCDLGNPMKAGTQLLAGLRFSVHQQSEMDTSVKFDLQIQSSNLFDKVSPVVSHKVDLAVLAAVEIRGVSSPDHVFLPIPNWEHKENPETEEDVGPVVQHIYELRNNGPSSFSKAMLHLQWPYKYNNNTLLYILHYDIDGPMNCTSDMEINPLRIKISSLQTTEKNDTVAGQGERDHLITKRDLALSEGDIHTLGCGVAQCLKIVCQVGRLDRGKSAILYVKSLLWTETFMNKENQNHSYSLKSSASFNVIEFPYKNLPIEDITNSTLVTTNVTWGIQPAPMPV
T1 chain 2: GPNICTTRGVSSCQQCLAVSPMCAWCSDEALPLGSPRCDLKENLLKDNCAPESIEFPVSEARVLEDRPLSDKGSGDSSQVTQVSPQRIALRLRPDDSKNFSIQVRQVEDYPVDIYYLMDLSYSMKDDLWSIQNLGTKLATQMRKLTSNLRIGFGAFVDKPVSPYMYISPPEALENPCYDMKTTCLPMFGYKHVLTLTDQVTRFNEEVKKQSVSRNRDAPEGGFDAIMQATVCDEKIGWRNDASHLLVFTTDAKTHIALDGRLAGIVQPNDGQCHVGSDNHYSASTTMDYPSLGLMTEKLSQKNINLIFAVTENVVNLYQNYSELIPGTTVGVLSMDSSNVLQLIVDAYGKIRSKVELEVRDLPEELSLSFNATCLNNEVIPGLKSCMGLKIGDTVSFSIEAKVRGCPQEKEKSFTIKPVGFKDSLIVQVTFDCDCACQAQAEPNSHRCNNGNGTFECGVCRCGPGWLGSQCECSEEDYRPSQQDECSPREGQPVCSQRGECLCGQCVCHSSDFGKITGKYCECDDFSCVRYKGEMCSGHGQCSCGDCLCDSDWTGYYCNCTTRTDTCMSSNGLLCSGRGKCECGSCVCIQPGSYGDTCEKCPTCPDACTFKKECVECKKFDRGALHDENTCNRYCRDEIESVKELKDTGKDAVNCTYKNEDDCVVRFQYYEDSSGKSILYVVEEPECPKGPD


Key:
integrin αvβ3 [1] = target: integrin αvβ3 (UniProt P06756); assay: SPR; Biacore X100, CM5 chip, integrin αvβ3 amine-coupled (~4200 RU), single cycle kinetics; running buffer Tris-HCl 20 mM, NaCl 150 mM, P20 0.05%, MgCl2 1 mM, pH 7.4; kinetic fit, steady state fit for fibronectin
integrin αvβ3 [2] = target: integrin αvβ3 (UniProt P06756); assay: SPR; Biacore X100, CM5 chip, integrin αvβ3 amine-coupled (~4200 RU), single cycle kinetics; running buffer Tris-HCl 20 mM, NaCl 150 mM, P20 0.05%, MgCl2 1 mM and MnCl2 1 mM, pH 7.4; kinetic fit, steady state fit for fibronectin
integrin αvβ3 [3] = target: T1, integrin αvβ3; assay: SPR; Mg2+ + Mn2+
integrin αvβ3 [4] = target: integrin αvβ3 (UniProt P06756 31-1048; P05106 27-788); assay: SPR; Biacore X100, single cycle kinetics, in the presence of Mg2+ and Mn2+; details: both partners purified
integrin αvβ3 [5] = target: integrin αvβ3 (UniProt P06756); assay: SPR; Biacore X100, CM5 chip, integrin αvβ3 amine-coupled (~4200 RU), single cycle kinetics; running buffer Tris-HCl 20 mM, NaCl 150 mM, P20 0.05%, MgCl2 1 mM and MnCl2 1 mM, pH 7.4; kinetic fit, steady state fit for fibronectin; remark: listed apart in the source
integrin αvβ3 [6] = target: T1, integrin αvβ3; assay: SPR; Mg2+ + Mn2+
integrin αvβ3 [7] = target: integrin αvβ3 (UniProt P06756); assay: SPR; Biacore X100, CM5 chip, integrin αvβ3 amine-coupled (~4200 RU), single cycle kinetics; running buffer Tris-HCl 20 mM, NaCl 150 mM, P20 0.05%, MgCl2 1 mM, pH 7.4; kinetic fit, steady state fit for fibronectin; remark: listed apart in the source
integrin αvβ3 [8] = target: T1, integrin αvβ3; assay: SPR; Mg2+
integrin αvβ3 [9] = target: T1, integrin αvβ3; assay: SPR; Mg2+

Sequence of vitronectin (P04004 20-478): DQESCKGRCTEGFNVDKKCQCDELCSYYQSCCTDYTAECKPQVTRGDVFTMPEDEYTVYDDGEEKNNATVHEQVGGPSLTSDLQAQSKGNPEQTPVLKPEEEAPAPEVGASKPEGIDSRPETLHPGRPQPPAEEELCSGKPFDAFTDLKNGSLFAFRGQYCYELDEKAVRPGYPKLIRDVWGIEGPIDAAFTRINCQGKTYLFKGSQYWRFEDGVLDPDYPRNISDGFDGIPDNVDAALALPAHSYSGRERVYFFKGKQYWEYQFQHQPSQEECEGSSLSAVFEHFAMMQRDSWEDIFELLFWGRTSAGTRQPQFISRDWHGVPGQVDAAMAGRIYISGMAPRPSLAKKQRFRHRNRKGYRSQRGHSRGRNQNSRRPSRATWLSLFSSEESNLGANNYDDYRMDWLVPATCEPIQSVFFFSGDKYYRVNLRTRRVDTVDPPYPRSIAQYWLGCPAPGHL

Row | Molecule | Kd (integrin αvβ3 [1]) | koff (integrin αvβ3 [1]) | kon (integrin αvβ3 [1]) | Kd (integrin αvβ3 [2]) | koff (integrin αvβ3 [2]) | kon (integrin αvβ3 [2]) | Kd (integrin αvβ3 [3]) | fold stronger binding than vitronectin (integrin αvβ3 [4]) | Kd (integrin αvβ3 [5]) | koff (integrin αvβ3 [5]) | kon (integrin αvβ3 [5]) | koff (integrin αvβ3 [6]) | Kd (integrin αvβ3 [7]) | koff (integrin αvβ3 [7]) | kon (integrin αvβ3 [7]) | Kd (integrin αvβ3 [8]) | koff (integrin αvβ3 [9])
1 | vitronectin (from UniProt P04004 20-478) (ligand) | 1.3 nM | 0.00021 s⁻¹ | 32000 M⁻¹ s⁻¹ | 24 nM | 0.00032 s⁻¹ | 13000 M⁻¹ s⁻¹ | – | – | – | – | – | – | – | – | – | – | –
2 | cyclo(RGD[dY]K) (also: dimer of two cyclic peptides on a Glu linker, NODAGA chelator with 68Ga) [[^68Ga]Ga-NODAGA-E[(cRGDyK)]2] | – | – | – | – | – | – | 0.71 pM | 1000 fold | 0.71 pM | 2.5e-07 s⁻¹ | 350000 M⁻¹ s⁻¹ | 2.5e-07 s⁻¹ | 0.075 nM | 7e-05 s⁻¹ | 930000 M⁻¹ s⁻¹ | 0.075 nM | 7e-05 s⁻¹
